From the Human Domainome abundance scans (Beltran et al. 2025)
± gives the uncertainty stated by the source.

B1: Nucleosome-remodeling factor subunit BPTF, residues 2862 to 2918; numbered along this chain, Q12830 (parent)
chain: TKKDTKLYCICKTPYDESKFYIGCDRCQNWYHGRCVGILQSEAELIDEYVCPQCQST

Variants of: B1
Assay: abundance fitness (aPCA) (normalised: wild type 0, dead -1); higher = more abundant; growth selection in yeast, the domain comes from the species named
Conditions: Homo sapiens

Row | Variant | abundance fitness
1 | TKKDTKLYCICKTPYDESKFYIGCDRCQNWYHGRCVGILQSEAELIDEYACPQCQST | -0.252 ± 0.088
2 | TKKDTKLYCICKTPYDESKFYIGCDRCQNWYHGRCVGILQSEAELIDEYCCPQCQST | -0.228 ± 0.095
3 | TKKDTKLYCICKTPYDESKFYIGCDRCQNWYHGRCVGILQSEAELIDEYDCPQCQST | -0.268 ± 0.15
4 | TKKDTKLYCICKTPYDESKFYIGCDRCQNWYHGRCVGILQSEAELIDEYECPQCQST | 0.132 ± 0.15
5 | TKKDTKLYCICKTPYDESKFYIGCDRCQNWYHGRCVGILQSEAELIDEYFCPQCQST | -0.099 ± 0.12
6 | TKKDTKLYCICKTPYDESKFYIGCDRCQNWYHGRCVGILQSEAELIDEYGCPQCQST | -0.672 ± 0.088
7 | TKKDTKLYCICKTPYDESKFYIGCDRCQNWYHGRCVGILQSEAELIDEYHCPQCQST | -0.288 ± 0.12
8 | TKKDTKLYCICKTPYDESKFYIGCDRCQNWYHGRCVGILQSEAELIDEYICPQCQST | -0.013 ± 0.095
9 | TKKDTKLYCICKTPYDESKFYIGCDRCQNWYHGRCVGILQSEAELIDEYKCPQCQST | -0.102 ± 0.11
10 | TKKDTKLYCICKTPYDESKFYIGCDRCQNWYHGRCVGILQSEAELIDEYLCPQCQST | 0.015 ± 0.074
11 | TKKDTKLYCICKTPYDESKFYIGCDRCQNWYHGRCVGILQSEAELIDEYMCPQCQST | -0.159 ± 0.11
12 | TKKDTKLYCICKTPYDESKFYIGCDRCQNWYHGRCVGILQSEAELIDEYNCPQCQST | -0.203 ± 0.14
13 | TKKDTKLYCICKTPYDESKFYIGCDRCQNWYHGRCVGILQSEAELIDEYPCPQCQST | -0.558 ± 0.1
14 | TKKDTKLYCICKTPYDESKFYIGCDRCQNWYHGRCVGILQSEAELIDEYQCPQCQST | -0.191 ± 0.14
15 | TKKDTKLYCICKTPYDESKFYIGCDRCQNWYHGRCVGILQSEAELIDEYRCPQCQST | -0.145 ± 0.062
16 | TKKDTKLYCICKTPYDESKFYIGCDRCQNWYHGRCVGILQSEAELIDEYSCPQCQST | -0.167 ± 0.077
17 | TKKDTKLYCICKTPYDESKFYIGCDRCQNWYHGRCVGILQSEAELIDEYTCPQCQST | 0.037 ± 0.086
18 | TKKDTKLYCICKTPYDESKFYIGCDRCQNWYHGRCVGILQSEAELIDEYWCPQCQST | -0.156 ± 0.078
19 | TKKDTKLYCICKTPYDESKFYIGCDRCQNWYHGRCVGILQSEAELIDEYYCPQCQST | -0.357 ± 0.11
20 | TKKDTKLYCICKTPYDESKFYIGCDRCQNWYHGRCVGILQSEAELIDEYVAPQCQST | -0.777 ± 0.094
21 | TKKDTKLYCICKTPYDESKFYIGCDRCQNWYHGRCVGILQSEAELIDEYVDPQCQST | -0.718 ± 0.14
22 | TKKDTKLYCICKTPYDESKFYIGCDRCQNWYHGRCVGILQSEAELIDEYVEPQCQST | -0.75 ± 0.096
23 | TKKDTKLYCICKTPYDESKFYIGCDRCQNWYHGRCVGILQSEAELIDEYVFPQCQST | -0.916 ± 0.11
24 | TKKDTKLYCICKTPYDESKFYIGCDRCQNWYHGRCVGILQSEAELIDEYVHPQCQST | -0.848 ± 0.23

Row | Variant | abundance fitness
25 | TKKDTKLYCICKTPYDESKFYIGCDRCQNWYHGRCVGILQSEAELIDEYVIPQCQST | -1.08 ± 0.17
26 | TKKDTKLYCICKTPYDESKFYIGCDRCQNWYHGRCVGILQSEAELIDEYVKPQCQST | -0.774 ± 0.16
27 | TKKDTKLYCICKTPYDESKFYIGCDRCQNWYHGRCVGILQSEAELIDEYVLPQCQST | -0.889 ± 0.093
28 | TKKDTKLYCICKTPYDESKFYIGCDRCQNWYHGRCVGILQSEAELIDEYVMPQCQST | -0.688 ± 0.15
29 | TKKDTKLYCICKTPYDESKFYIGCDRCQNWYHGRCVGILQSEAELIDEYVNPQCQST | -0.904 ± 0.16
30 | TKKDTKLYCICKTPYDESKFYIGCDRCQNWYHGRCVGILQSEAELIDEYVPPQCQST | -0.919 ± 0.19
31 | TKKDTKLYCICKTPYDESKFYIGCDRCQNWYHGRCVGILQSEAELIDEYVQPQCQST | -0.98 ± 0.15
32 | TKKDTKLYCICKTPYDESKFYIGCDRCQNWYHGRCVGILQSEAELIDEYVRPQCQST | -0.743 ± 0.088
33 | TKKDTKLYCICKTPYDESKFYIGCDRCQNWYHGRCVGILQSEAELIDEYVSPQCQST | -0.53 ± 0.089
34 | TKKDTKLYCICKTPYDESKFYIGCDRCQNWYHGRCVGILQSEAELIDEYVTPQCQST | -0.981 ± 0.13
35 | TKKDTKLYCICKTPYDESKFYIGCDRCQNWYHGRCVGILQSEAELIDEYVYPQCQST | -0.928 ± 0.14
36 | TKKDTKLYCICKTPYDESKFYIGCDRCQNWYHGRCVGILQSEAELIDEYVCAQCQST | -0.058 ± 0.08
37 | TKKDTKLYCICKTPYDESKFYIGCDRCQNWYHGRCVGILQSEAELIDEYVCCQCQST | -0.186 ± 0.11
38 | TKKDTKLYCICKTPYDESKFYIGCDRCQNWYHGRCVGILQSEAELIDEYVCDQCQST | 0.113 ± 0.12
39 | TKKDTKLYCICKTPYDESKFYIGCDRCQNWYHGRCVGILQSEAELIDEYVCEQCQST | 0.009 ± 0.091
40 | TKKDTKLYCICKTPYDESKFYIGCDRCQNWYHGRCVGILQSEAELIDEYVCFQCQST | 0.032 ± 0.12
41 | TKKDTKLYCICKTPYDESKFYIGCDRCQNWYHGRCVGILQSEAELIDEYVCGQCQST | -0.019 ± 0.079
42 | TKKDTKLYCICKTPYDESKFYIGCDRCQNWYHGRCVGILQSEAELIDEYVCIQCQST | -0.108 ± 0.14
43 | TKKDTKLYCICKTPYDESKFYIGCDRCQNWYHGRCVGILQSEAELIDEYVCKQCQST | 0.126 ± 0.1
44 | TKKDTKLYCICKTPYDESKFYIGCDRCQNWYHGRCVGILQSEAELIDEYVCLQCQST | -0.125 ± 0.076
45 | TKKDTKLYCICKTPYDESKFYIGCDRCQNWYHGRCVGILQSEAELIDEYVCMQCQST | -0.149 ± 0.11
46 | TKKDTKLYCICKTPYDESKFYIGCDRCQNWYHGRCVGILQSEAELIDEYVCQQCQST | -0.033 ± 0.12
47 | TKKDTKLYCICKTPYDESKFYIGCDRCQNWYHGRCVGILQSEAELIDEYVCRQCQST | -0.048 ± 0.077
